Reference: PMC2632911
Where two headings read alike, the source gives them in different places.

Key:
Experiment in all cases: EMSA
H-NS wild type = biological target: T1, H-NS wild type (UniProt P0ACF8 1-137)
T1 sequence: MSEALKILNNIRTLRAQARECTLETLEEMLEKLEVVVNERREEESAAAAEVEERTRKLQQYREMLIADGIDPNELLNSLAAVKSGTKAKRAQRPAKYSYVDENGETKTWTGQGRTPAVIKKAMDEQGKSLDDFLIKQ

[1] = biological target: T2, H-NS wild type;Tn5 HA transposase (Escherichia coli?;Tn5, UniProt P0ACF8;Q46731 1-137;1-476, |E54K;M56A;L372P)
Tn5 HA transposase [2] = biological target: T3, Tn5 HA transposase (Tn5, UniProt Q46731 1-476, E54K;M56A;L372P)
[3] = biological target: T2, H-NS wild type;Tn5 HA transposase; remark: listed apart in the source
[4] = biological target: T2, H-NS wild type;Tn5 HA transposase; remark: listed apart in the source
[5] = biological target: H-NS P116S;Tn5 transposase delta369 EK/MA (Escherichia coli?;Tn5, UniProt P0ACF8;Q46731 1-137;1-368, P116S|E54K;M56A)
Tn5 HA transposase [6] = biological target: T3, Tn5 HA transposase; remark: listed apart in the source
[7] = biological target: H-NS wild type;Tn5 transposase delta369 EK/MA (Escherichia coli?;Tn5, UniProt P0ACF8;Q46731 1-137;1-368, |E54K;M56A)
[8] = biological target: Tn5 transposase delta369 EK/MA (Tn5, UniProt Q46731 1-368, E54K;M56A)

B1: 20 bp ME (dsDNA)
DNA 1: CTGTCTCTTATACACATCTT
DNA 2: AAGATGTGTATAAGAGACAG
- binding result (H-NS wild type): no binding
- binding result [1]: binds
- binding result (Tn5 HA transposase [2]): binds

B2: 53 bp ME (WT) (dsDNA)
DNA 1: CCCTGCAGGTCGACTGTCTCTTATACACATCTTGAGTGAGTGAGCATGCATGT
DNA 2: ACATGCATGCTCACTCACTCAAGATGTGTATAAGAGACAGTCGACCTGCAGGG
- binding signal [3]: 11 fold increase
- binding signal [4]: < 2 fold increase
- binding result [5]: no binding
- binding result (Tn5 HA transposase [6]): binds
- binding result [7]: binds
- binding result [8]: binds
